Substitutions are numbered along the chain they refer to.
B1: Fv3-M73 (antibody, V domains shown)
VH: QVQLQESGPGLVKPSETLSLTCAVSGHSISHDHAWSWVRQPPGEGLEWIGFISYSGITNYNPTLQGRVTISRDNSKNTLYLQMNSLRAEDTAVYYCARSLARTTAMDYWGEGTLVTVSS
VL: DIQMTQSPSSLSASVGDSVTITCQASRDISSHLNWYQQKPGKAPELLIYYGSHLLSGVPSRFSGSGSGTDFTFTISSLEAEDAATYYCGQGNRLPYTFGQGTKVEIER
B2: H3pI/L73 (antibody, human IgG1, kappa, V domains shown)
VH: QVQLQESGPGLVKPSETLSLTCAVSGHSISHDHAHSWVRQPPGEGLEWIGYISYSGITNYNPSLKGRVTISRDTSKNQFSLKLSSVTAADTAAYYCARSLARTTAMDYWGEGTLVTVSS
VL: B1 VL with R27Q, D28H, L55H
B3: Fv4-M73 (antibody, V domains shown)
VH: B1 VH with T63S
VL: B1 VL with R27T

Molecular target: soluble recombinant human IL-6 receptor (human) (UniProt P08887)
Assay: Biacore T100, biotinylated SR344 immobilised via streptavidin as model of membrane-type IL-6 receptor, dissociation at pH 7.4 and pH 5.8, 37 degrees C

soluble recombinant human IL-6 receptor (human), sequence (P08887 20-344, form in doubt): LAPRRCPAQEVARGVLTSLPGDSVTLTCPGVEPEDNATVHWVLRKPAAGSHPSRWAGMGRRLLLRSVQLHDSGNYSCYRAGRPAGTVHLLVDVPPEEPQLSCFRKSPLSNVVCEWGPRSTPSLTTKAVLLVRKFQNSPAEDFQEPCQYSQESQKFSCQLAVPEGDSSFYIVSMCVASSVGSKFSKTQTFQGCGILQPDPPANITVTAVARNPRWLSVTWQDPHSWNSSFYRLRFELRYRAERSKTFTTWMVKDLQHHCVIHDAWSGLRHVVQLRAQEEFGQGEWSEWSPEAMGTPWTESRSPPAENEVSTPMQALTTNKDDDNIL

| Binder | fold improvement of the pH dependency of the dissociation rate (pH 5.8 against pH 7.4) over TOCILIZUMAB | fold increase of the pH dependence of the dissociation rate (pH 5.8 against pH 7.4) over TOCILIZUMAB |
| --- | --- | --- |
| B1 | 11 times | – |
| B2 | – | 2.6 times |
| B3 | 10 times | – |

From patent WO2010106812A1
